# Experimental data published in patent publication US20220396819A1, “METHOD FOR PRODUCING PEPTIDE HAVING PHYSIOLOGICAL ACTIVITY, AND PEPTIDE COMPRISING SHORT LINKER” (priority 2019, published 2022).
# B1: rhTPO: recombinant human TPO (rhTPO, Peprotech) (protein)
# chain: SPAPPACDLRVLSKLLRDSHVLHSRLSQCPEVHPLPTPVLLPAVDFSLGEWKTQMEETKAQDILGAVTLLLEGVMAARGQLGPTCLSSLLGQLSGQVRLLLGALQSLLGTQLPPQGRTTAHKDPNAIFLSFQHLLRGKVRFLMLVGGSTLCVRRAPPTTAVPSRTSLVLTLNEL
# Tests used:
# HEL cells [1] = test: Thrombopoietin-like activity, CREB phosphorylation levels in HEL cells (Phospho-CREB (Ser133) ELISA); assay type: cell-based, human; details: dimer peptide 20-40 ng/mL or rhTPO 100 ng/mL, 20 minutes, Mock = PBS, FIG. 90
# Method: The thrombopoietin-like activity of the TPO-PAS dimer peptide variant was evaluated by quantification of CREB phosphorylation levels in HEL cells, a human leukemia-derived blood cell line. 200,000 HEL cells were cultured in RPMI 1640 medium without FBS (Thermo Fisher Scientific) for 24 hours and starved. The cells were stimulated for 20 minutes in RPMI 1640 medium supplemented with 100 ng/mL recombinant human TPO (rhTPO, Peprotech) or a culture supernatant containing each dimer peptide of TPO2-PAS8, TPO2-PAS49, TPO2-PAS100, or TPO2-GS8 diluted to a final concentration of 20-40 ng/mL. As a negative control, PBS was added, and stimulation was performed for 20 minutes (Mock group). After removing the medium and washing the cells once with PBS, the cells were lysed by adding 100 μL of Lysis buffer 17 (R&D Systems) supplemented with Protease inhibitor cocktail (Nacalai Tesque). The lysate solution was centrifuged at 14,000 G for 5 minutes to obtain the supernatant as lysate. Note that TPO2-PAS8 was obtained according to the method described in Example 23.
# Phospho-CREB (Ser133) and Total CREB ELISA kit (RayBio) were used to quantify phosphorylated CREB (pCREB) levels in the lysates. […] Phosphorylation levels were quantified by adding 50 μL of Stop solution and measuring the absorbance at a wavelength of 450 nm on a microplate.
# HEL cells [2] = test: Signal characteristics, Proteome Profiler Human Phospho-Kinase Array Kit, HEL cells; assay type: cell-based; details: 100 ng/mL rhTPO or culture supernatant 1/100 to 1/1000, 20 minutes, FIG. 43
# Method: The signal characteristics of the TPO-PAS dimer peptide were evaluated using Proteome Profiler Human Phospho-Kinase Array Kit (R&D Systems).
# 1,000,000 HEL cells were cultured in RPMI 1640 medium without FBS (Thermo Fisher Scientific) for 24 hours and starved. The cells were stimulated for 20 minutes in RPMI 1640 medium supplemented with 100 ng/mL recombinant human TPO (rhTPO, Peprotech) or a culture supernatant containing TPO2-PAS8 at a dilution of 1/100 to 1/1000. As a negative control, PBS was added, and stimulation was performed for 20 minutes (Mock group). After removing the medium and washing the cells once with PBS, the cells were lysed by adding 200 μL of Lysis buffer 17 (R&D Systems) supplemented with Protease inhibitor cocktail (Nacalai Tesque). The lysate solution was centrifuged at 14,000 G for 5 minutes to obtain the supernatant as lysate.
# The lysate was analyzed using Proteome Profiler Human Phospho-Kinase Array Kit. Amersham Imager 600 (GE Healthcare) was used to detect chemiluminescence. The chemiluminescence intensity of the dots was quantified using ImageJ. […] The signal pathway stimulated by rhTPO is mainly the JAK2/Stat3,5 pathway, and all of the proteins with increased phosphorylation levels are included in the pathway.
molecule,measurement,setting,value
B1,pCREB level (relative CREB phosphorylation level),HEL cells [1],143%
same,phosphorylation levels of signal proteins compared with PBS (Mock group),HEL cells [2],"increased in phosphorylation levels of Erk, CREB, Stat3, Stat5a, and Stat5b"
